These results are taken from patent publication US20210253718A1, “FRIZZLED5 PROTEIN-BINDING AGENTS” (Modmab Therapeutics Corporation, priority 2016, published 2021).

Changes are numbered by the printed parent chain.

Holding throughout (assay): Flow cytometry of anti-FZD5 Fab binding to CHO cells overexpressing Frizzled CRD
For one test, the target named is T1, FZD2 CRD (Homo sapiens, UniProt Q14332).
T1 construct: D35-P161; GPI anchor signal (C); expressed in transfected cells; host or cells: CHO cells, lentiviral pLenti-puro
Here is the method:
(§1) Plasmids: pLCKO lentiviral vector used for knockout (TKO) library construction and expression of individual gRNAs was constructed as described previously (Hart et al., 2015). Briefly, single guide RNA (sgRNA) scaffold was amplified from px330 (Addgene 42230) and cloned into pLKO.TRC005 lentiviral vector (Broad Institute, Cambridge, Mass.) using AgeI/EcoRI restriction sites. BfuAI sites were added at the 5′ end of the sgRNA scaffold for cloning the TKO library or individual gRNA target sequences. Lenti Cas9-2A-BsdR vector used to generate Cas9 stable expression cell lines was constructed as described previously (Hart et al., 2015). Briefly, lentiCRISPR pXPR_001 (Addgene 49535) was modified through removal of the sgRNA scaffold region through NdeI/EcoRI digest and blunt ends generation using Large Klenow Fragment (NEB). 2A-puro was replaced with 2A-BsdR by PCR using the NheI/MluI sites. Each of the 10 human Frizzled cysteine rich domains (CRDs) were cloned into the lentiviral expression plasmid pLenti-puro in the following cassette: FZD_CRD-MYC-GPI.
(§2) Flow cytometry: Primary staining of cells was performed by treatment with 200 nM Frizzled profiler Fab. Alexa Fluor 488 AffiniPure F(ab′)2 was used as the secondary antibody (Jackson ImmunoResearch #109-546-097). c-Myc (9E10) IgG1 (primary antibody, Santa Cruz, lot #D0306) and Alexa Fluor 488 IgG (secondary antibody, Life technologies, lot #1458649) were used as controls. Dead cells were excluded by staining with Fixable Viability Dye eFluor 660 (eBioscience, catalogue number 65-0864). All reagents were used as per manufacturer's instructions. Flow cytometry was performed on a BD FACSCanto II flow cytometer (BD Biosciences), and data were analyzed with FlowJo software (FlowJo, LLC).
(§3) To confirm that the FZD5-WNT7B circuit is not driven simply by expression and rule out the possibility of a disconnect between RNA and protein levels for the Wnt receptors in HPAF-II cells, a panel of recombinant Fabs were generated, alternatively referred to herein as ‘Frizzled profiler’, that can detect and discriminate all but one of the ten Frizzled receptors. […] To characterize the binding specificity of these Fabs on cells, a panel of 10 CHO cell lines was generated, each expressing the CRD domain of a different myc-tagged Frizzled family member anchored at the plasma membrane through a GPI anchor (CHO-myc-FZDGPI). Despite the high sequence identity between Frizzled family members (FIG. 7A, FIG. 7B), selective Fabs were identified for FZD4, FZD5, FZD6 and FZD10 as assessed by immunofluorescence and flow cytometry (FIG. 7D and FIG. 8). […] The FZD8 CRD is most homologous to that of FZD5 (FIG. 7B). These Fabs can be used to discriminate expression of FZD1, FZD2, FZD4, FZD5, FZD6, FZD7, FZD8, FZD9 and FZD10 (FIG. 7D and FIG. 8). The ‘Frizzled profiler’ therefore consists of 10 different Fabs that can be used to discriminate expression of 9 different Frizzled family members. The Frizzled profiler was then used to confirm that HPAF-II cells express FZD1, FZD5, FZD6 and possibly FZD8 (FIG. 7E).
(§4) The binding of anti-FZD5 Fabs to cell surface-expressed Frizzled protein was further determined for each member of the Frizzled family via flow cytometry and immunofluorescence analysis of a panel of 10 CHO cell lines, each ectopically over-expressing the extracellular cysteine-rich domain (CRD) of a different Frizzled protein family member.

The target in a further test is T2, FZD8 CRD (Homo sapiens, UniProt Q9H461).
T2 construct: K31-D155; GPI anchor signal (C); expressed in transfected cells; host or cells: CHO cells, lentiviral pLenti-puro
T2 sequence (Q9H461 31-155): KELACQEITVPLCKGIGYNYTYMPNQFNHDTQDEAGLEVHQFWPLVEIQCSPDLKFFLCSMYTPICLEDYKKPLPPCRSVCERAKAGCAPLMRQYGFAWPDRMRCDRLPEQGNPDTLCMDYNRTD
Here is the method: as §1, §2, §3, §4

The target in the next test is T3, FZD1 CRD (Homo sapiens, UniProt Q9UP38).
T3 construct: D112-P238; GPI anchor signal (C); expressed in transfected cells; host or cells: CHO cells, lentiviral pLenti-puro
The procedure:
as §1, §2, §3, §4

B1: Fab-2901: anti-FZD5 Fab with antibody variable region Fv-2901; CDR SEQ ID NOs: 35, 36, 40, 79, 116, 154 (antibody, V domains shown)
VH: EVQLVESGGGLVQPGGSLRLSCAASGFNISYSYMHWVRQAPGKGLEWVASIYSYSSYTYYADSVKGRFTISADTSKNTAYLQMNSLRAEDTAVYYCARSWYYWSPSSGMDYWGQGTLVTVSS
VL: DIQMTQSPSSLSASVGDRVTITCRASQSVSSAVAWYQQKPGKAPKLLIYSASSLYSGVPSRFSGSRSGTDFTLTISSLQPEDFATYYCQQGGFLITFGQGTKVEIK
As for B1, the “Median fluorescence, Frizzled CRD overexpressed on CHO cells: FZD2” value (shortened to “Median fluorescence … FZD2”) in the test with FZD2 CRD is recorded as 13.95.

B2: Fab-2903: anti-FZD5 Fab with antibody variable region Fv-2903; CDR SEQ ID NOs: 35, 36, 42, 81, 118, 155 (antibody, V domains shown)
VH: EVQLVESGGGLVQPGGSLRLSCAASGFNLSYYYIHWVRQAPGKGLEWVASIYPYSSYTSYADSVKGRFTISADTSKNTAYLQMNSLRAEDTAVYYCARGAIDYWGQGTLVTVSS
VL: DIQMTQSPSSLSASVGDRVTITCRASQSVSSAVAWYQQKPGKAPKLLIYSASSLYSGVPSRFSGSRSGTDFTLTISSLQPEDFATYYCQQWGGGSSLFTFGQGTKVEIK
As to B2, the “Median fluorescence … FZD2” value with FZD2 CRD is reported as 10.84.

B3: Fab-2932: anti-FZD5 Fab with antibody variable region Fv-2932; CDR SEQ ID NOs: 35, 36, 71, 108, 147, 153 (antibody, V domains shown)
VH: B2 VH with L29I, Y32S, I34M, P53S, Y54S, S55Y, Y57S, I101L
VL: B2 VL with G92Y, G94S, S95F, S96A, F98I
Consider B3, for which, in the test with FZD2 CRD, the “Median fluorescence … FZD2” value was found to be 9.39.

B4: Fab-2913: anti-FZD5 Fab with antibody variable region Fv-2913; CDR SEQ ID NOs: 35, 36, 52, 91, 128, 165 (antibody, V domains shown)
VH: EVQLVESGGGLVQPGGSLRLSCAASGFNISYSSIHWVRQAPGKGLEWVASIYPYSSSTSYADSVKGRFTISADTSKNTAYLQMNSLRAEDTAVYYCARYGYYGLDYWGQGTLVTVSS
VL: B2 VL with G93V, G94S, S95H, S96Y
As to B4, the “Median fluorescence, Frizzled CRD overexpressed on CHO cells: FZD8” value (“Median fluorescence … FZD8” below) with FZD8 CRD was determined as 8.98.

B5: Fab-2910: anti-FZD5 Fab with antibody variable region Fv-2910; CDR SEQ ID NOs: 35, 36, 49, 88, 125, 162 (antibody, V domains shown)
VH: B2 VH with L29I, Y32S, I34M, P53S, Y54S, Y57S, I101M
VL: DIQMTQSPSSLSASVGDRVTITCRASQSVSSAVAWYQQKPGKAPKLLIYSASSLYSGVPSRFSGSRSGTDFTLTISSLQPEDFATYYCQQWYGSHLITFGQGTKVEIK
Turning to B5, the “Median fluorescence, Frizzled CRD overexpressed on CHO cells: FZD1” value (from here on “Median fluorescence … FZD1”) in the test with FZD1 CRD is reported as 6.67.

B6: Fab-2934: anti-FZD5 Fab with antibody variable region Fv-2934; CDR SEQ ID NOs: 35, 36, 73, 110, 149, 155 (antibody, V domains shown)
VH: B2 VH with L29I, Y32S, I34M, P53S, Y54S, S56G, Y57S
VL: B5 VL with G93H, S94Y, H95G
For the molecule B6, in the test with FZD2 CRD, the “Median fluorescence … FZD2” value is on record as 6.61.

B7: Fab-2930: anti-FZD5 Fab with antibody variable region Fv-2930; CDR SEQ ID NOs: 35, 36, 69, 107, 145, 153 (antibody, V domains shown)
VH: B2 VH with S56G, Y57S, I101L
VL: B5 VL with S94P, H95Y
Consider B7, for which the “Median fluorescence … FZD2” value in the test with FZD2 CRD came out at 11.44.

B8: Fab-2929: anti-FZD5 Fab with antibody variable region Fv-2929; CDR SEQ ID NOs: 35, 36, 68, 106, 144, 162 (antibody, V domains shown)
VH: B2 VH with L29I, Y54S, Y57S, I101M
VL: B2 VL with G92Y, G93S, G94S, S95Y, S96G, F98I
Regarding B8, in the test with FZD1 CRD, the “Median fluorescence … FZD1” value amounted to 7.64.

B9: Fab-2909: anti-FZD5 Fab with antibody variable region Fv-2909; CDR SEQ ID NOs: 35, 36, 48, 87, 124, 161 (antibody, V domains shown)
VH: EVQLVESGGGLVQPGGSLRLSCAASGFNISSSYMHWVRQAPGKGLEWVASISSSSGYTSYADSVKGRFTISADTSKNTAYLQMNSLRAEDTAVYYCARTVRGSKKPYFSGWAMDYWGQGTLVTVSS
VL: B2 VL with W91S, G92W, G93S, G94Y, S95H, S96Y, F98I
In the case of B9, the “Median fluorescence … FZD8” value in the test with FZD8 CRD amounted to 7.43.

B10: Fab-2928: anti-FZD5 Fab with antibody variable region Fv-2928; CDR SEQ ID NOs: 35, 36, 67, 105, 143, 175 (antibody, V domains shown)
VH: EVQLVESGGGLVQPGGSLRLSCAASGFNISYSSIHWVRQAPGKGLEWVASIYPSYSSTYYADSVKGRFTISADTSKNTAYLQMNSLRAEDTAVYYCARYYAMDYWGQGTLVTVSS
VL: DIQMTQSPSSLSASVGDRVTITCRASQSVSSAVAWYQQKPGKAPKLLIYSASSLYSGVPSRFSGSRSGTDFTLTISSLQPEDFATYYCQQAFYYPITFGQGTKVEIK
As to B10, the “Median fluorescence … FZD2” value with FZD2 CRD turned out to be 14.59. For the same molecule, the “Median fluorescence … FZD1” value with FZD1 CRD is reported as 18.43. The “Median fluorescence … FZD8” value in the test with FZD8 CRD came to 7.57.

B11: Fab-2933: anti-FZD5 Fab with antibody variable region Fv-2933; CDR SEQ ID NOs: 35, 36, 72, 109, 148, 177 (antibody, V domains shown)
VH: B9 VH with I29L, S30Y, S52Y, S55Y
VL: DIQMTQSPSSLSASVGDRVTITCRASQSVSSAVAWYQQKPGKAPKLLIYSASSLYSGVPSRFSGSRSGTDFTLTISSLQPEDFATYYCQQFWWYASWLFTFGQGTKVEIK
Turning to B11, in the test with FZD2 CRD, the “Median fluorescence … FZD2” value was determined as 9.82.

B12: Fab-2918: anti-FZD5 Fab with antibody variable region Fv-2918; CDR SEQ ID NOs: 35, 36, 57, 96, 133, 169 (antibody, V domains shown)
VH: B4 VH with I29L, P53S, Y54S, S55Y, Y99F, Y102W, G103A, L104I
VL: B5 VL with W91A, Y92F, S94A, H95S, I97F
With B12, the “Median fluorescence … FZD1” value with FZD1 CRD was found to be 11.97.
